Measurements published in the Human Domainome abundance scans (Beltran et al. 2025).

B1: POU domain, class 3, transcription factor 1, residues 247 to 324; numbered along this chain, Q03052 (parent)
chain: EDAPSSDDLEQFAKQFKQRRIKLGFTQADVGLALGTLYGNVFSQTTICRFEALQLSFKNMCKLKPLLNKWLEETDSSS

Variants of: B1
Test: abundance fitness (aPCA) (normalised: wild type 0, dead -1); higher = more abundant; growth selection in yeast, the domain comes from the species named
Conditions: Homo sapiens

Abundance fitness: each site, then its substitutions
F57: P -0.014; Y 0.37; D -0.063; C -0.394; K 0.005; I -0.273
E51: R -0.501; F -0.756; H -0.98; T -0.668; P -0.781; I -0.818; A -0.65; L -1.08; M -0.503; V -0.525; K -0.414; S -0.723; Q -0.686; Y -0.899; N -0.461; D -0.381; G -0.251
L55: P -0.867; G -0.514; C -0.064; K -0.535; Q -0.645; M -0.132; W -0.764; T -0.746; V -0.45; N -0.2; Y -0.46; E -0.438; F -0.311; D -0.479; S -0.323; H -0.359; A -0.54
C61: Q 0.017; M -0.036; V 0.045; N -0.24; L -0.048; K -0.043; E -0.078; P -0.988; Y -0.164; W -0.148; T -0.384; S -0.212; A -0.001; R -0.065; H -0.357; I -0.134; D -0.96; F -0.538
A52: R -0.001; P -0.929; Q 0.021; C -0.362; H -0.141; L -0.275; D 0.041; I -0.56; G -0.156; N 0.23; W -0.728; V -1.02; K 0.163; S 0.036; M -0.341
C48: W -0.37; K -0.011; I 0.094; S 0.144; P -0.175; D 0.307; N -0.21; H -0.021; V -0.151; T -0.086; L -0.04; G 0.032; Q 0.064; F 0.068; Y -0.312; E 0.174; A 0.129
I47: W -0.408; G -0.751; E -1.12; D -1.24; P -0.661; V -0.228; L -0.304; H -0.944; Q -0.954; S -0.736; T -0.883; M -0.69; A -0.765; R -0.555; C -0.294
M60: I -0.811; G -0.673; S -0.448; T -0.396; R -0.826; V -0.701; Q -1.05; P -1.18; W -0.826; L -0.256; A -0.244; Y 0.109; E -0.948; K -0.09; N 0.011; C -0.604
L53: N 0.319; P -0.759; I 0.064; K -0.135; Y -0.112; E -0.494; V -0.055; H -0.111; W -0.478; D -0.646; F -0.256; T -0.336; A 0.042; S 0.051; R -0.052; Q -0.009
L63: G -0.643; N -0.117; V -0.315; K -0.887; W -0.605; E -0.436; P -0.769; S -0.791; C -0.736; M -0.11; F -0.148; Y -0.368; R -0.766; T -0.582; D -0.297
T46: V -0.096; H -0.261; R -0.509; I -0.121; L -0.279; S -0.191; Y -0.037; M 0.069; K -0.304; Q -0.314; P -0.533; A -0.125; N -0.373; D 0.118; C -0.64
